Earlier results, collected in article PMC4599702.
pKd: −log10 of the molar value.

Experiments:
CBP KIX (Homo sapiens) = CBP KIX (Homo sapiens) (UniProt Q92793)
p300 KIX (Homo sapiens) = p300 KIX (Homo sapiens) (UniProt Q09472); experiment: microscale thermophoresis
Chain of UniProt Q09472 (Q09472 563-648): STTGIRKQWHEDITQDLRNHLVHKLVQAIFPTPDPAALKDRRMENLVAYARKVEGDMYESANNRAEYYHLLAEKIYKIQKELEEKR

Chain of UniProt Q92793 (Q92793 584-669): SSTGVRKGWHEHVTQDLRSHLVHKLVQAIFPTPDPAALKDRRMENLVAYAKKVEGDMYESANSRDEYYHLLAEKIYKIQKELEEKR

pKd (CBP KIX (Homo sapiens)): 6.19
pKd (p300 KIX (Homo sapiens)): 5.60
Substance: Myb (from UniProt P10242)
